# Results published in paper PMC10173337.
# Several values for one entry are separate records, joined by “and”; a condition that tells them apart may be missing. Identical values can stand only once.
# Target: eight amino acid-mutated FcγRIIIa without glycosylation (ligand of the TSKgel FcR-IIIA-NPR column) (UniProt P08637)
# Test: FcγRIIIa affinity column chromatography
# UniProt P08637, sequence (P08637 17-208, change not shown): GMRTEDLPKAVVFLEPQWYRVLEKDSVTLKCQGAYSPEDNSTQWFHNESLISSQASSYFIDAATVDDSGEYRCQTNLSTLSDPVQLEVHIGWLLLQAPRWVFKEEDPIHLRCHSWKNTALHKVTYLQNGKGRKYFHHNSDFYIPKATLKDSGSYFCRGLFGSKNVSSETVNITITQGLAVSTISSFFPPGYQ
row,Substance,retention time
1,Fc fragment of rituximab after papain digestion 5 (domain or fragment),11.2 min and 13.6 min and 16 min
2,Fc fragment of rituximab with full-length glycan 10 (domain or fragment),16.4 min
3,full-length mogamulizumab 4 (antibody),12.1 min and 14.8 min and 17.2 min
4,full-length rituximab with full-length glycan 8 (antibody),15.6 min
5,full-length trastuzumab 2 (antibody),9.8 min and 12.2 min and 14.7 min

# Results, then the substance that gave them:
row,retention time,Substance
1,10.7 min and 13.3 min and 15.1 min,full-length cetuximab 3 (antibody)
2,10.2 min and 12.6 min and 15 min,full-length rituximab 1 (antibody)
3,4.3 min,full-length rituximab with trisaccharide 7 (antibody)
